B1: Tyrosinase 368-376-D epitopic peptide (peptide)
peptide: YMDGTMSQV
notes: synthetic peptide; also called Tyrosinase.368-D

Biological target: T1, HLA-A2.1 molecules on T2 (TAP-, HLA-A2.1+) cells (human)
T1 construct: MHC class I molecule to which peptides were added from outside; Surface HLA-A2.1 was detected with mAb BB7.2; also called H.A.-A2.1
Assay: T2 cells, peptide binding by surface HLA-A2.1 (BB7.2) flow cytometry; ratio of concentrations reaching 20% of maximal binding

Row | Binder | RA (relative affinity)
1 | VLYRYGSFSV (synthetic peptide) [gp100 476-485 epitopic peptide] | 10 ratio to HIV 1 rt.476 reference peptide
2 | ILTVILGVL (synthetic peptide) [Melan-A/MART-1 32-40 epitopic peptide] | 21.1 ratio to HIV 1 rt.476 reference peptide
3 | MLLAVLYCL (synthetic peptide) [Tyrosinase 1-9 epitopic peptide] | > 60 ratio to HIV 1 rt.476 reference peptide
4 | B1 | 2.27 ratio to HIV 1 rt.476 reference peptide
5 | LLDGTATLRL (synthetic peptide) [gp100 457-466 epitopic peptide] | 1.65 ratio to HIV 1 rt.476 reference peptide

— patent US7345026 (INSTITUT PASTEUR, dated 2008)
